Measurements from patent publication US20200087347 (published 2020).
Where no end group is shown, it is not given here. Side-chain parts run from the residue outwards. [ ]: non-standard residue; d: D form. The star is where a group is joined. BODIPY(FL) = CC1=CC(C)=[N+]2C1=Cc1ccc(CCC(=O)*)n1[B-]2(F)F; NMeK = CN[C@@H](CCCCN)C(=O)O; Ahx = NCCCCCC(=O)O; BDPFL = dye

Molecular target: T1, integrin αvβ8 (human, UniProt P06756)
T1 chain 1: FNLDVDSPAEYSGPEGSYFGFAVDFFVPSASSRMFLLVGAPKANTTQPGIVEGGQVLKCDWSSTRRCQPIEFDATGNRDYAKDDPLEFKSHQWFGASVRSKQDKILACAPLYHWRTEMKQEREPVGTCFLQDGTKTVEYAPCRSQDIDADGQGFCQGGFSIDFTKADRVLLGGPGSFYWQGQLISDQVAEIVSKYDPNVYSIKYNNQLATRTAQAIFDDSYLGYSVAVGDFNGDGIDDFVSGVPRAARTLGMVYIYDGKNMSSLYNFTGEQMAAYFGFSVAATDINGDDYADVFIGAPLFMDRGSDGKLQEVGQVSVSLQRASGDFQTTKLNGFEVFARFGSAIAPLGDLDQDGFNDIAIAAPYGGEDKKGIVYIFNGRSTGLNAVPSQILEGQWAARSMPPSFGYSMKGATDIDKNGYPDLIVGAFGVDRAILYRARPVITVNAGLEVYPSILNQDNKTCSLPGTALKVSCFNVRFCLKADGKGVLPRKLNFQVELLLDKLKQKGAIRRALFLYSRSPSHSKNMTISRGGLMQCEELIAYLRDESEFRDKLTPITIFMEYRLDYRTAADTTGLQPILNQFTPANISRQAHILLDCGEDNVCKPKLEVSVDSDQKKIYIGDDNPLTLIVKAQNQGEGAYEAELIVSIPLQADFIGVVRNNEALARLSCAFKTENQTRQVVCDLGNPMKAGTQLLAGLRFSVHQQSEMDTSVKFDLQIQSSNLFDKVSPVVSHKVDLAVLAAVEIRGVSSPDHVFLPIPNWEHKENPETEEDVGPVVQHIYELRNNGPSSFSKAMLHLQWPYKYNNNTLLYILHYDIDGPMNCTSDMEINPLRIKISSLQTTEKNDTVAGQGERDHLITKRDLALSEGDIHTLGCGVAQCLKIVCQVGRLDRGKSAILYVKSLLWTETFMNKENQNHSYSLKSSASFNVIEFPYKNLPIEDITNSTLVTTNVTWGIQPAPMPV
T1 chain 2: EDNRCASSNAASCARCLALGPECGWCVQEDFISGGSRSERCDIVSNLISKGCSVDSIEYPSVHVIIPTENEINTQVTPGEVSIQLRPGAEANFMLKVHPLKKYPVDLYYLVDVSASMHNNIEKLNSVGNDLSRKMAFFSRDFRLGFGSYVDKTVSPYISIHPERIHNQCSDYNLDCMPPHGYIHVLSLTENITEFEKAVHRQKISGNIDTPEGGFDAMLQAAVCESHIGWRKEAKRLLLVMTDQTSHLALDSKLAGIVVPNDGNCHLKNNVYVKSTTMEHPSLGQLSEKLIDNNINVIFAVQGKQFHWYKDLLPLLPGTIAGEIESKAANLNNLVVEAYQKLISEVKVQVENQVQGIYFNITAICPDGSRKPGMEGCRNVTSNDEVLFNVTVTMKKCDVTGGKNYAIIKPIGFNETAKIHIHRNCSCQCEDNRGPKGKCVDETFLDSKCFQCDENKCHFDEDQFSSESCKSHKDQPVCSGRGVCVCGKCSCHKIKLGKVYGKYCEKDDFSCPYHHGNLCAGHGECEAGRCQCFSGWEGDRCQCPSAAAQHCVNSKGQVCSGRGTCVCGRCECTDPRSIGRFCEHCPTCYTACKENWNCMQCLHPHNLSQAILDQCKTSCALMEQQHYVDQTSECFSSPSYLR
Experiment: competition

Q: How did the IC50 turn out when cyclo(RGD[dF]K) (also: Ahx-BDPFL conjugate, attachment site not given here) [Compound 13 (Table 3) c(RGDfK)-Ahx-BDPFL] was run?
A: 0.258 µM

Q: With cyclo(RGDL[dP][NMeK]([Ahx-Ahx-BDPFL])GL) [Compound 9c (9-Ahx-Ahx-BDPFL)] as the binder, how does the IC50 read?
A: 0.00152 µM

Q: For RGDL[dP][NMeK]([Gly-Pro-Pro-Pro-Gly-BODIPY(FL)])GL (not fully specified (bridges); also: cyclic, closure not given here) [Compound 9e (9-G(P)3G-BDPFL)], which IC50 is on record?
A: 0.00207 µM

Q: RGDL[dP][NMeK]([(PEG)5-BODIPY(FL)])GL (not fully specified (bridges); also: cyclic, closure not given here) [Compound 9d (9-(PEG)5-BDPFL)] was tested. Which IC50 did it give?
A: 0.00125 µM

Q: With cyclo(RGDL[dP][NMeK]([Gly-Pro-Pro-Pro-Pro-Pro-Pro-Gly-BDPFL])GL) [Compound 9f (9-G(P)6G-BDPFL)] as the binder, how does the IC50 read?
A: 0.00798 µM

Q: How did the IC50 turn out when cyclo(GLRVDL[dP][NMeK]([Ahx-BDPFL])) [Compound 11 (Table 3) c(GLRVDLp(NMe)K)-Ahx-BDPFL] was run?
A: 1.12 µM

Molecular target: T2, integrin αvβ6 (human, UniProt P06756)
T2 chain 1: T1 chain 1
T2 chain 2: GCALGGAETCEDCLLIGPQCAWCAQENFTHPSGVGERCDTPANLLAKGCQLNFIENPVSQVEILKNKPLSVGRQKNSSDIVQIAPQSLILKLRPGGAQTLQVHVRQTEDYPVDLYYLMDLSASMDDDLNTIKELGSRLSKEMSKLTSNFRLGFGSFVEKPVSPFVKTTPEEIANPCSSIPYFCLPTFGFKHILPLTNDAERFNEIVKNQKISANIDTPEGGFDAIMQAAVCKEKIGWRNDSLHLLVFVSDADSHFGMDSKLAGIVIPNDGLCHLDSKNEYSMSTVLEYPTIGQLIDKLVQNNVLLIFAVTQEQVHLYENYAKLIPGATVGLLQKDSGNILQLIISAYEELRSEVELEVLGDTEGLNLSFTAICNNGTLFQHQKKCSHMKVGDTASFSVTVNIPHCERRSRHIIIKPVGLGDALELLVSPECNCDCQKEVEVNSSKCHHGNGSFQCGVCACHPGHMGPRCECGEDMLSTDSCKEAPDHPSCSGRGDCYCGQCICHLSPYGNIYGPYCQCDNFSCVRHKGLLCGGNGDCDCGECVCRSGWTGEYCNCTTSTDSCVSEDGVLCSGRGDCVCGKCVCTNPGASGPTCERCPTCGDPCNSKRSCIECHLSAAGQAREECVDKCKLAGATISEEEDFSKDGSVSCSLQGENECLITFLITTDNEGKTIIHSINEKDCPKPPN
Experiment: competition

Q: Which IC50 does the source give for cyclo(RGD[dF]K) (also: Ahx-BDPFL conjugate, attachment site not given here) [Compound 13 (Table 3) c(RGDfK)-Ahx-BDPFL] here?
A: 0.0078 µM

Q: cyclo(RGDL[dP][NMeK]([Ahx-Ahx-BDPFL])GL) [Compound 9c (9-Ahx-Ahx-BDPFL)] was tested. Which IC50 did it give?
A: 0.064 µM

Q: With RGDL[dP][NMeK]([Gly-Pro-Pro-Pro-Gly-BODIPY(FL)])GL (not fully specified (bridges); also: cyclic, closure not given here) [Compound 9e (9-G(P)3G-BDPFL)] as the binder, how does the IC50 read?
A: 0.247 µM

Q: With RGDL[dP][NMeK]([(PEG)5-BODIPY(FL)])GL (not fully specified (bridges); also: cyclic, closure not given here) [Compound 9d (9-(PEG)5-BDPFL)] as the binder, how does the IC50 read?
A: 0.247 µM

Q: How did the IC50 turn out when cyclo(RGDL[dP][NMeK]([Gly-Pro-Pro-Pro-Pro-Pro-Pro-Gly-BDPFL])GL) [Compound 9f (9-G(P)6G-BDPFL)] was run?
A: 0.453 µM

Q: How did the IC50 turn out when cyclo(GLRVDL[dP][NMeK]([Ahx-BDPFL])) [Compound 11 (Table 3) c(GLRVDLp(NMe)K)-Ahx-BDPFL] was run?
A: > 10 µM

Molecular target: T3, integrin αvβ5 (human, UniProt P06756)
T3 chain 1: T1 chain 1
T3 chain 2: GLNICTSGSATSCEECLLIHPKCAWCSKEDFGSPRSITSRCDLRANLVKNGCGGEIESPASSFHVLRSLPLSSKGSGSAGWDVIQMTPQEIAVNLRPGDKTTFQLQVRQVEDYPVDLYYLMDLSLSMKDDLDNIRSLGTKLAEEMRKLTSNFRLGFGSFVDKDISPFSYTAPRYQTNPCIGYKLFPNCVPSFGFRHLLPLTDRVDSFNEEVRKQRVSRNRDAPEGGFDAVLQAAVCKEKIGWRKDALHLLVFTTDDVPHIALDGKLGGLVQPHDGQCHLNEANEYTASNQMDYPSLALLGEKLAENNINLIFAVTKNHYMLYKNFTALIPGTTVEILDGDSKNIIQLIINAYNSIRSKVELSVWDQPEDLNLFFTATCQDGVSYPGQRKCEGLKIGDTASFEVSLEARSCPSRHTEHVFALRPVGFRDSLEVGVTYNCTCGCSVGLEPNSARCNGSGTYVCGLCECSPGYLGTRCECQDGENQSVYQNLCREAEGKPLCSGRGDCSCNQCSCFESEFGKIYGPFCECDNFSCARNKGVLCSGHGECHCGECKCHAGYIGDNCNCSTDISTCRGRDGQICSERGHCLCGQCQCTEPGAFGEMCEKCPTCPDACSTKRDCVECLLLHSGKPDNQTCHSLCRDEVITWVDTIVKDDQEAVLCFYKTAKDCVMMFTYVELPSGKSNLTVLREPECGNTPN
Experiment: competition

Q: Which IC50 does the source give for RGDL[dP][NMeK]([Gly-Pro-Pro-Pro-Gly-BODIPY(FL)])GL (not fully specified (bridges); also: cyclic, closure not given here) [Compound 9e (9-G(P)3G-BDPFL)] here?
A: > 10 µM

Q: Which IC50 does the source give for RGDL[dP][NMeK]([(PEG)5-BODIPY(FL)])GL (not fully specified (bridges); also: cyclic, closure not given here) [Compound 9d (9-(PEG)5-BDPFL)] here?
A: > 10 µM

Q: With cyclo(RGDL[dP][NMeK]([Gly-Pro-Pro-Pro-Pro-Pro-Pro-Gly-BDPFL])GL) [Compound 9f (9-G(P)6G-BDPFL)] as the binder, how does the IC50 read?
A: > 10 µM

Molecular target: integrin α5β1 (human, UniProt P08648)
Experiment: competition

Chain of integrin α5β1 (P08648 42-1049, chain 1 of 2): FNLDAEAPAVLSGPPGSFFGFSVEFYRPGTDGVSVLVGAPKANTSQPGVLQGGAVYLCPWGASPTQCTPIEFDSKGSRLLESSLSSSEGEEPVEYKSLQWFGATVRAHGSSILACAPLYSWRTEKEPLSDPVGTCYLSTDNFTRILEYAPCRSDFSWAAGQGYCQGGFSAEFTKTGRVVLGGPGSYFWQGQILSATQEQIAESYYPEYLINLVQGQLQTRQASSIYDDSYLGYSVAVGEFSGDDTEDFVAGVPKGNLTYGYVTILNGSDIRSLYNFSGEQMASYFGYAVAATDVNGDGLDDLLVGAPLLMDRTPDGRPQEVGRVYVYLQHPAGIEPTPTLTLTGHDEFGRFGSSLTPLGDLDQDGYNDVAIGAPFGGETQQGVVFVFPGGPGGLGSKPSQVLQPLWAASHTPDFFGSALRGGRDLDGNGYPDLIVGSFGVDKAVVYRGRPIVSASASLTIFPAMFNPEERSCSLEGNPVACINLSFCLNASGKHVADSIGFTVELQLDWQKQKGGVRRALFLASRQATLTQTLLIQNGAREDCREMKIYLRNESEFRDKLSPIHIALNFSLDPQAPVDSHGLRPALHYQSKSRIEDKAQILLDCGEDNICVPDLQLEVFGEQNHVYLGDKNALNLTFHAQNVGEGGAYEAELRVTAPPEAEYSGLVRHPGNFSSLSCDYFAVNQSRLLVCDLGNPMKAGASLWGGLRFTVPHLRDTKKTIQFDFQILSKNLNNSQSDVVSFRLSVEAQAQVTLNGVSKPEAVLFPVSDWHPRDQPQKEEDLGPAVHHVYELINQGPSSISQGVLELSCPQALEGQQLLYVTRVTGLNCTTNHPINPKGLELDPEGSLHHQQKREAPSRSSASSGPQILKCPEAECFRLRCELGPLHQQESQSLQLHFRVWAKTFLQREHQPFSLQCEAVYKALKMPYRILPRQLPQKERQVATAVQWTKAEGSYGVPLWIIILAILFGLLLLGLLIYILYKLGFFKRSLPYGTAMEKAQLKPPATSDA
Chain of integrin α5β1 (chain, as listed by the source, chain 2 of 2): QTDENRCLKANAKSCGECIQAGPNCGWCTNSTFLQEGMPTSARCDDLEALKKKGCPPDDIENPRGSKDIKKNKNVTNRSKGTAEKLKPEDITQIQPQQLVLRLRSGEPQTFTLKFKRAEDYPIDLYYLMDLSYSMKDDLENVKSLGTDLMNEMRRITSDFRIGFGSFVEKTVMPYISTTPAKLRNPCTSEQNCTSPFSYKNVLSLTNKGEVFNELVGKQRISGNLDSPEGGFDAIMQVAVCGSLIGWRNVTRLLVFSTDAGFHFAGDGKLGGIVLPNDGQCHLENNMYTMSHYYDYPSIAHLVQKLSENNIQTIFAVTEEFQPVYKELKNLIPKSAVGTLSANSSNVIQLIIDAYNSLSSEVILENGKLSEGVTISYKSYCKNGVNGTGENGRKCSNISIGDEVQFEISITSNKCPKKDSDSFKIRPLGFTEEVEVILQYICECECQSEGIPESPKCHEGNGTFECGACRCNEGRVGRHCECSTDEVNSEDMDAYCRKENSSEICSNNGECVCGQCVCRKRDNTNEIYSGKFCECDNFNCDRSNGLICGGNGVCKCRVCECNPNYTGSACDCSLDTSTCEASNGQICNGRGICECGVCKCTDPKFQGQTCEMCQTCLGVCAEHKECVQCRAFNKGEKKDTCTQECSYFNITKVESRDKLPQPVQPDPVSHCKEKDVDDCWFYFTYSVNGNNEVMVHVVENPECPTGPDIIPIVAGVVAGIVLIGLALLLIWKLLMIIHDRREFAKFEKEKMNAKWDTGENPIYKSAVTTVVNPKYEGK

Q: How did the IC50 turn out when RGDL[dP][NMeK]([Gly-Pro-Pro-Pro-Gly-BODIPY(FL)])GL (not fully specified (bridges); also: cyclic, closure not given here) [Compound 9e (9-G(P)3G-BDPFL)] was run?
A: 0.979 µM

Q: For RGDL[dP][NMeK]([(PEG)5-BODIPY(FL)])GL (not fully specified (bridges); also: cyclic, closure not given here) [Compound 9d (9-(PEG)5-BDPFL)], which IC50 is on record?
A: 0.095 µM

Q: cyclo(RGDL[dP][NMeK]([Gly-Pro-Pro-Pro-Pro-Pro-Pro-Gly-BDPFL])GL) [Compound 9f (9-G(P)6G-BDPFL)] was tested. Which IC50 did it give?
A: 0.782 µM

Molecular target: T4, integrin αvβ3 (human, UniProt P06756)
T4 chain 1: T1 chain 1
T4 chain 2: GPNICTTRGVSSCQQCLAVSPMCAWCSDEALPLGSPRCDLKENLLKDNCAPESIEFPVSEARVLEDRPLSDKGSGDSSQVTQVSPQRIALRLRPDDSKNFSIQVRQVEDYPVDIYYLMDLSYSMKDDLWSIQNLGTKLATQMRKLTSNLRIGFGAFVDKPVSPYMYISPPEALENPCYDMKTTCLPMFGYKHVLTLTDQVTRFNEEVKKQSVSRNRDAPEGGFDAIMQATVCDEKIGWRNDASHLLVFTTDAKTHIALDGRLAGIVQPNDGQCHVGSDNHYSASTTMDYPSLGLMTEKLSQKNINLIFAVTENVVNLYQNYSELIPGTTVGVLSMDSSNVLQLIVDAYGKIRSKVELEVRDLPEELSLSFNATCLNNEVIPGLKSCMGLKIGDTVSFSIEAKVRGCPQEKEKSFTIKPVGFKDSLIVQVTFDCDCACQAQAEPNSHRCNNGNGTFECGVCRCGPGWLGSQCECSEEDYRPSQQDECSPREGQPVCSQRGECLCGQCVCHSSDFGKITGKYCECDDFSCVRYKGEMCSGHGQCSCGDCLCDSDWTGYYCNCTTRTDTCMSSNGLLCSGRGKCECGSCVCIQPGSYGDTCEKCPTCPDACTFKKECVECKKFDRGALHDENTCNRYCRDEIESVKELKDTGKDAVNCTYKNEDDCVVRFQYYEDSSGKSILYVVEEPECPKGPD
Experiment: competition

Q: How did the IC50 turn out when cyclo(RGD[dF]K) (also: Ahx-BDPFL conjugate, attachment site not given here) [Compound 13 (Table 3) c(RGDfK)-Ahx-BDPFL] was run?
A: 0.00255 µM

Q: cyclo(RGDL[dP][NMeK]([Ahx-Ahx-BDPFL])GL) [Compound 9c (9-Ahx-Ahx-BDPFL)] was tested. Which IC50 did it give?
A: 0.5 µM

Q: RGDL[dP][NMeK]([Gly-Pro-Pro-Pro-Gly-BODIPY(FL)])GL (not fully specified (bridges); also: cyclic, closure not given here) [Compound 9e (9-G(P)3G-BDPFL)] was tested. Which IC50 did it give?
A: 0.585 µM

Q: How did the IC50 turn out when RGDL[dP][NMeK]([(PEG)5-BODIPY(FL)])GL (not fully specified (bridges); also: cyclic, closure not given here) [Compound 9d (9-(PEG)5-BDPFL)] was run?
A: 0.098 µM

Q: How did the IC50 turn out when cyclo(RGDL[dP][NMeK]([Gly-Pro-Pro-Pro-Pro-Pro-Pro-Gly-BDPFL])GL) [Compound 9f (9-G(P)6G-BDPFL)] was run?
A: 0.042 µM

Q: cyclo(GLRVDL[dP][NMeK]([Ahx-BDPFL])) [Compound 11 (Table 3) c(GLRVDLp(NMe)K)-Ahx-BDPFL] was tested. Which IC50 did it give?
A: > 10 µM
